From paper PMC7116876, “Mechanistic Insights into Regulation of the ALC1 Remodeler by the Nucleosome Acidic Patch” (Cell reports, 2020)

What was measured:
[1] = system: individual WT/APM nucleosomes; test: smFRET remodeling directionality, WT/APM nucleosomes; format: biochemical, Xenopus laevis histones; conditions: 2.5 μM remodeler, 1 mM ATP, n > 100 traces
Description: (§1) The DNA constructs used in the nucleosome assembly for single-molecule and ensemble remodeling studies comprised the Widom 601 nucleosome positioning sequence ([Lowary and Widom, 1998]) as well as either 3 bp or 12 bp of linker DNA on one side and 78 bp on the other side (for the single-molecule remodeling construct) or 63 bp of linker DNA on one side and no linker DNA on the other side (for the ensemble remodeling construct). All constructs were 5’-labeled with Cy5 on the short linker end. The constructs for single-molecule experiments additionally featured a biotin on the long linker end. […] The DNA constructs for the assembly of nucleosomes used in fluorescence anisotropy experiments and ATPase assays comprised the Widom 601 positioning sequence without additional linker DNA (for the fluorescence anisotropy construct) or 63 bp of linker DNA on one side and no linker DNA on the other side (for the ATPase assay construct). […]
(§2) Using the DNA constructs for single-molecule FRET described above, we first generated oriented hexasomes with H2A-Cy3 on the short linker side using a salt dialysis method as described previously ([Dyer et al., 2004]; [Levendosky et al., 2016]; [Sabantsev et al., 2019]). […] Data were analyzed using custom scripts for the Fiji distribution of ImageJ ([Schindelin et al., 2012]; [Schneider et al., 2012]), IDL, and MATLAB ([Sabantsev et al., 2019]). […]

[2] = system: ALC1-catalyzed remodeling of WT/WT nucleosomes; test: Ensemble FRET nucleosome remodeling, WT/WT nucleosomes; format: biochemical, Homo sapiens ALC1; Xenopus laevis histones; conditions: WT/WT end-positioned nucleosomes, saturating remodeler and ATP
Description: (§3) cDNAs for ALC1 and PARP1 were of Homo sapiens origin. Histone proteins (recombinantly expressed in E. coli) were of Xenopus laevis origin. Cell lines as well as growth conditions are described in the Method Details.
(§4) Oligonucleotides used in this study were ordered from IDT (see Table S3). The ALC1^fl (16-879) construct contains the human ALC1 sequence and a 6xHis-tag, as previously published ([Lehmann et al., 2017]). All point mutations were generated by PCR-based site-directed mutagenesis. The plasmid for human PARP1 (1-1014) with an N-terminal 6xHis-tag was a kind gift from John M. Pascal ([Langelier et al., 2017]).
as §1, with “construct).” for “construct). All constructs were 5’-labeled with Cy5 on the short linker end. The constructs for single-molecule experiments additionally featured a biotin on the long linker end.”
Nucleosome ensemble remodeling kinetics were measured by monitoring the Cy5 (under 620 nm and 520 nm excitation) and Cy3 (under 520 nm excitation) fluorescence emission signals of a solution of FRET-labeled nucleosomes using a Spark (Tecan) or CLARIOstar (BMG Labtech) multimode microplate reader. […] Reaction kinetics were analyzed assuming a standard Michaelis-Menten mechanism.
(§5) For fluorescence anisotropy binding experiments, the reported values represent the mean ± SEM from 3 independent experiments. […] For ensemble nucleosome remodeling time courses, each experimental condition was recorded in 3 independent experiments, and representative remodeling time courses are shown. […]

[3] = system: ALC1 ATPase with 145 bp dsDNA; test: DNA-stimulated ATPase activity; format: biochemical, Homo sapiens ALC1; conditions: 1 μM ALC1, 20 μM or 50 μM 145 bp dsDNA, 1 mM ATP; N = 3 independent experiments
Procedure: ATPase activity was measured using a coupled assay that measures ADP production as described previously, ([Willhoft et al., 2016]). Final concentrations of 0.45 mM NADH, 1.0 mM phosphoenolpyruvate, 54 U/ml pyruvate kinase (Sigma), and 78 U/ml lactic dehydrogenase (Sigma) were used. For measurements of nucleosome-stimulated ATPase activity, reactions contained 20 μM ALC1,2 μM WT/WT nucleosomes, and 1 mM ATP in a volume of 30 μl. Fluorescence was monitored (excitation wavelength: 340 nm; emission wavelength: 430 nm) at 37°C using a CLARIOstar microplate reader (BMG Labtech) and black low-volume 384-well microplates (Corning). For measurements of DNA-stimulated ATPase activity, the absorbance was monitored at 340 nm for reactions containing a final of 1 μM ALC1 and either 20 μM or 50 μM 145 bp nucleosomal double-stranded (ds) DNA in 100 μl. Reaction rates were determined using mean linear slopes. […]
as §5

[4] = system: individual WT/WT nucleosomes; test: smFRET remodeling directionality, WT/WT nucleosomes; format: biochemical, Xenopus laevis histones; conditions: 2.5 μM remodeler, 1 mM ATP, n > 100 traces
Description: as §1, §2

[5] = system: ALC1-catalyzed remodeling of APM/APM nucleosomes; test: Ensemble FRET nucleosome remodeling, APM/APM versus WT/WT nucleosomes; format: biochemical, Homo sapiens ALC1; Xenopus laevis histones; conditions: 20 μM remodeler, 10 nM nucleosomes, 1.5 mM ATP; n = 3 independent experiments
Description: as §3, §4
as §1, with “construct).” for “construct). All constructs were 5’-labeled with Cy5 on the short linker end. The constructs for single-molecule experiments additionally featured a biotin on the long linker end.”

[6] = system: ALC1 ATPase with WT/WT nucleosomes; test: Nucleosome-stimulated ATPase activity; format: biochemical, Homo sapiens ALC1; Xenopus laevis histones; conditions: 20 μM ALC1 with 2 μM WT/WT nucleosomes versus 1 μM ALC1 with dsDNA, 1 mM ATP
Procedure: ATPase activity was measured using a coupled assay that measures ADP production as described previously, ([Willhoft et al., 2016]). Final concentrations of 0.45 mM NADH, 1.0 mM phosphoenolpyruvate, 54 U/ml pyruvate kinase (Sigma), and 78 U/ml lactic dehydrogenase (Sigma) were used. For measurements of nucleosome-stimulated ATPase activity, reactions contained 20 μM ALC1,2 μM WT/WT nucleosomes, and 1 mM ATP in a volume of 30 μl. Fluorescence was monitored (excitation wavelength: 340 nm; emission wavelength: 430 nm) at 37°C using a CLARIOstar microplate reader (BMG Labtech) and black low-volume 384-well microplates (Corning). For measurements of DNA-stimulated ATPase activity, the absorbance was monitored at 340 nm for reactions containing a final of 1 μM ALC1 and either 20 μM or 50 μM 145 bp nucleosomal double-stranded (ds) DNA in 100 μl. Reaction rates were determined using mean linear slopes. For measurements of nucleosome-stimulated ATPase activity, we estimated Vmax for both ALC1^fl R860W and ALC1^fl R611A/S612A/R860W using the Michaelis-Menten equation and the Km values that we obtained from nucleosome sliding kinetics in Figure 3B.
For fluorescence anisotropy binding experiments, the reported values represent the mean ± SEM from 3 independent experiments. For ATPase activity measurements, the reported values represent the mean ± standard deviation from 3 independent experiments. For ensemble nucleosome remodeling time courses, each experimental condition was recorded in 3 independent experiments, and representative remodeling time courses are shown. Relative remodeling rates derived from these curves represent the mean ± standard deviation from 3 independent experiments. For smFRET experiments, values are reported as mean ± SEM from several experiments as specified in the corresponding figure legends. For association kinetics from live-cell imaging, error bars represent SEM from N ≥ 131 traces from 3 independent experiments.

B1: ALC1^fl R860W: constitutively active mutant of ALC1 (protein)
chain: FLLRLHTEGRAEAARVQEQDLRQWGLTGIHLRSYQLEGVNWLAQRFHCQNGCILGDEMGLGKTCQTIALFIYLAGRLNDEGPFLILCPLSVLSNWKEEMQRFAPGLSCVTYAGDKEERACLQQDLKQESRFHVLLTTYEICLKDASFLKSFPWSVLVVDEAHRLKNQSSLLHKTLSEFSVVFSLLLTGTPIQNSLQELYSLLSFVEPDLFSKEEVGDFIQRYQDIEKESESASELHKLLQPFLLRRVKAEVATELPKKTEVVIYHGMSALQKKYYKAILMKDLDAFENETAKKVKLQNILSQLRKCVDHPYLFDGVEPEPFEVGDHLTEASGKLHLLDKLLAFLYSGGHRVLLFSQMTQMLDILQDYMDYRGYSYERVDGSVRGEERHLAIKNFGQQPIFVFLLSTRAGGVGMNLTAADTVIFVDSDFNPQNDLQAAARAHRIGQNKSVKVIRLIGRDTVEEIVYRKAASKLQLTNMIIEGGHFTLGAQKPAADADLQLSEILKFGLDKLLASEGSTMDEIDLESILGETKDGQWVSDALPAAEGGSRDQEEGKNHMYLFEGKDYSKEPSKEDRKSFEQLVNLQKTLLEKASQEGRSLRNKGSVLIPGLVEGSTKRKRVLSPEELEDRQKKRQEAAAKRRRLIEEKKRQKEEAEHKKKMAWWESNNYQSFCLPSEESEPEDLENGEESSAELDYQDPDATSLKYVSGDVTHPQAGAEDALIVHCVDDSGHWGRGGLFTALEKRSAEPRKIYELAGKMKDLSLGGVLLFPVDDKESRNKGQDLLALIVAQHRDRSNVLSGIKMAALEEGLKKIFLAAKKKKASVHLPRIGHATKGFNWYGTERLIWKHLAARGIPTYIYYFPRSK
modifications: left off: His6, end not stated, state not stated
fraction of WT/APM nucleosomes moved toward the shorter linker end [1]: 89%
FRET change upon addition of remodeler and ATP [2]: FRET decreased
DNA-stimulated ATPase activity, ALC1^fl R860W versus ALC1^fl R611A/S612A/R860W [3]: essentially identical DNA-stimulated ATPase activity
fraction of single-nucleosome remodeling traces with initial decrease in FRET (toward longer linker DNA) [4]: 62%
fraction of traces with opposite directionality (toward shorter linker DNA) [4]: 38%
fold decrease in remodeling rate, APM/APM versus WT/WT nucleosomes [5]: ~ 13.7 fold
nucleosome-stimulated ATPase activity, fold higher than DNA-stimulated ATPase activity [6]: ~ 1.6 fold
